Measurements taken from US8999342B2, “Anti-fibroblast activation protein antibodies and methods and uses thereof” (Ludwig Institute for Cancer Research, Ltd., priority 2009, dated 2015).
Numbering of substitutions follows the chain as printed. Entries after “also recorded” stand apart in the source; their conditions may differ.

Columns and labels:
[1] = biological target: T1, FAP (Homo sapiens, UniProt Q12884); details: cited from earlier work
T1 sequence (Q12884 1-760): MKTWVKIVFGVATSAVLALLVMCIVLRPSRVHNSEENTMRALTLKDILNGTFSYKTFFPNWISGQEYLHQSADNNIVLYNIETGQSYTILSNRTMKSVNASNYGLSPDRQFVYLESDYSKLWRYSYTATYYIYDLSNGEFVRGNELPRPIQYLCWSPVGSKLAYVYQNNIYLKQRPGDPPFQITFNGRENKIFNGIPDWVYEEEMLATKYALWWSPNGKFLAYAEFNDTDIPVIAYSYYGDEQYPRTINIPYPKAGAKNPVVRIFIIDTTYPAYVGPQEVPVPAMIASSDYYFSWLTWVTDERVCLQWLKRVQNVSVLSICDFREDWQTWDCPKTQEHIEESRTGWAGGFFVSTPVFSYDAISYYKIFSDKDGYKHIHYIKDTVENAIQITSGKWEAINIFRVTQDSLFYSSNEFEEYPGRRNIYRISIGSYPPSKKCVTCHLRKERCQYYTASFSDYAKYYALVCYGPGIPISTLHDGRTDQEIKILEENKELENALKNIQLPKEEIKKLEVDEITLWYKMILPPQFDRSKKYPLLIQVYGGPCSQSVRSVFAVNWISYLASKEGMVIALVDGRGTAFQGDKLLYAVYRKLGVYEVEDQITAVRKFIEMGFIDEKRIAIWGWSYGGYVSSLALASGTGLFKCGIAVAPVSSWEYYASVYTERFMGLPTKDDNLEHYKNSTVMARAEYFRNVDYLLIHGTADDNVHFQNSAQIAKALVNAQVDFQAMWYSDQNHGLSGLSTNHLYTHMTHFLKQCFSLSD

[2] = tested on: HEK293 cells stably transfected with mouse FAP; test: Detection of apoptotic cells by Annexin V staining, FAP-transfected cells; assay type: cell-based
[3] = biological target: T1, FAP; test: Antibody mediated down-regulation of FAP expression; assay type: cell-based; parameters: expressed in transfected cells; host or cells: HT1080 (FAP-transfected); details: FAP-transfected tumor cell lines (HT1080FAP), over night incubation, F19 staining
Procedure: For detection of loss of FAP expression, sub-confluent HT1080FAP cultures were trypsinized, washed with PBS and resuspended in RPMI, 10% FBS at 5×10^5 cells and 0.5 ml per well seeded in 12 well cell culture plates and the indicated concentration of ESCHIgG was added. After over night incubation, cells were trypsinized washed and stained with 10 ug/ml F19 followed by FITC-conjugated polyclonal goat anti-mouse. Fluorescence intensity of the cells was analyzed by flow cytometry. % FAP expression was calculated (100/(signal 0 ug/ml ESC11IgG−background signal))*(signal with ESC11IgG−backgroundsignal). One representative of three independent experiments is shown.

[4] = tested on: FAP-expressing cells; test: Attachment assay to ECM proteins; assay type: cell-based; details: antibodies 10 ug/ml, 30 min preincubation
Procedure: Ninety-six-well microtiter plates (MAXISORP®, Nunc) were coated with indicated proteins at a concentration of 50 ug/ml and incubated over night at 4° C. Plates were washed three times with PBS and then blocked with 1% BSA for 60 min at 37° C. Cells were preincubated for 30 min with indicated antibodies at a final concentration of 10 ug/ml and then added to the coated plates. After 60 min, plates were washed with PBS to remove non adherent cells. Attached cells were stained using cristal violet and lysed by addition of Isopropanol with 0.4M HCl at a final volume of 75 ul/well. OD560 was measured on a ELISA reader.

[5] = tested on: mock-transfected Hek293 cells; test: Detection of apoptotic cells by Annexin V staining, mock-transfected cells; assay type: cell-based
Procedure: Detection of Apoptotic Cells by Annexin V Staining.
FAP- and mock-transfected Hek293 cells were incubated in DMEM supplemented with 10% FBS in the presence of indicated amount of antibodies at RT. Control samples were either incubated in the absence of antibodies or at 4° C. in the presence of antibodies. After 60 min, cells were washed and stained with Propidium Iodide (Sigma) and Annexin V (Roche) following the manufacturer's instructions and the percentage of apoptosis was determined using flow cytometry.

[6] = biological target: T2, dipeptidylpeptidase activity of FAP (Homo sapiens, UniProt Q12884); test: Fluorogenic dipeptidyl peptidase activity assay (Ala-Pro-AFC); assay type: biochemical; details: 30 μg/ml IgGs added to extracts of human AF; Ala-Pro-AFC substrate
T2 construct: native FAP expressed on human AF; endogenous in cells
T2 sequence (Q12884 1-760): T1 sequence (Q12884 1-760)
Procedure: Fluorogenic Dipeptidyl Peptidase Activity Assay.
The diluted extracts were incubated with 0.5 mM Ala-Pro-AFC in 96-well plates at 37° C. and release of free AFC was monitored over time on a fluorescence reader (Victor Wallac, Perkin Elmer), using a 395 nm excitation/530 nm emission filter set. Dipeptidyl peptidase activity was determined from the slope of the fluorescence readings, after subtraction of background activity from a FAP negative sample.

[7] = biological target: T3, CD26 (Homo sapiens, UniProt P27487); test: Binding specificity by ELISA on cell lysates, CD26; details: HEK293 huCD26+ lysates
T3 construct: expressed in transfected cells; host or cells: HEK293 c-18 (ATCC CRL-10852), pEAK 8 vector; cell lysate coated on the plate
Procedure: FIG. 3: Specificity of Fabs ESC11 and ESC14. A. ELISA of Fabs (100 nM) binding to cell-lysate-coated plates. HT1080 FAP^+ (black bars), HT1080 (white bars), HEK293 huCD26^+ (striped bars), HEK293 muFAP^+ (grey bars), HEK293 mock transfected line (hatched bars). B. FACS analysis of Fab ESC11 (black line), ESC14 (grey line), and a non-binding control Fab (filled) on HT1080 FAP^+ cells (left) and 293 muFAP^+ cells (right)
Screening of Supernatants by ELISA and Flow Cytometry.
Supernatants of the output libraries after each selection round, and supernatants of individual bacterial clones after rounds three, four, and five were screened for FAP-binding phage by ELISA. Ninety-six-well microtiter plates (MAXISORP® Nunc) were coated with cell extracts cell extracts from HEK293 huFAP, HEK293 huCD26, HEK293 muFAP, or mock-transfected HEK293, blocked with 5% milk powder in PBS, incubated with phage-containing supernatants for 1 hr at room temperature and developed using an anti-M13-HRP conjugated antibody. […] Bound Fab antibody was detected with anti-myc tag antibody 9E10, followed by an anti-mouse immunoglobulin-PE conjugate. For competition assays, Fab antibodies were detected using biotinylated anti-myc tag 9E10, followed by strep-PE.

[8] = biological target: T1, FAP; test: Competition assay on HT1080hFAP cells by flow cytometry; assay type: binding; parameters: expressed in transfected cells; host or cells: HT1080 (FAP-transfected); details: IgG at 5 ug/ml before ESC11/ESC14 Fab fragments; HT1080FAP cells, 4° C.
Procedure: For measuring the competitive binding of ESC11 and ESC14, Fab fragments were titered on HT1080hFAP cells and binding was determined by flow cytometry. The concentration resulting in 90% of the maximal binding was used for the competition assay. HT1080FAP were incubated with the indicated antibodies at 5 ug/ml for 20 min at 4° C., then the ESC11-/ESC14 Fab fragments or PBS added at the pre-determined concentrations and incubated for 20 min at 4° C. Cells were washed once with PBS at 4° C. and fixed with 2% PFA on ice. Bound Fab fragment was detected by the myc-tag with biotinylated anti-myc and PE conjugated streptavidin. Cells were then analyzed by flow cytometry as described.

[9] = tested on: HT1080FAP cells; test: Internalization of FAP-antibody complexes by fluorescence microscopy; assay type: cell-based; details: DyLight 488 labelled antibody, 37° C., two hours, acidic wash
Procedure: HT1080FAP cells were incubated with fluorescence labelled anti-FAP antibody Esc11 DYLIGHT® […] (flurorochrome conjugated antibody, ThermoScientific). […] When cells were warmed up to 37° C., rapid internalisation of FAP-Esc11 complexes could be detected with cytoplasmatic spots and vesicular accummulation (FIG. 11B).
Methods: HT1080FAP were grown on fibronectin coated glas slides over night. The cells were then treated with DYLIGHT® (Thermo Scientific) labeled ESC11IgG at either 4° C. or 37° C. for indicated time points. The cover slides were then mounted with flouromount for fluorescence microscopy. ESC11 DYLIGHT® 488 was detected at extention wavelaength of 488 nm and an emission of 518 nm. The results are depicted in FIG. 11.

T3 sequence (P27487 whole entry): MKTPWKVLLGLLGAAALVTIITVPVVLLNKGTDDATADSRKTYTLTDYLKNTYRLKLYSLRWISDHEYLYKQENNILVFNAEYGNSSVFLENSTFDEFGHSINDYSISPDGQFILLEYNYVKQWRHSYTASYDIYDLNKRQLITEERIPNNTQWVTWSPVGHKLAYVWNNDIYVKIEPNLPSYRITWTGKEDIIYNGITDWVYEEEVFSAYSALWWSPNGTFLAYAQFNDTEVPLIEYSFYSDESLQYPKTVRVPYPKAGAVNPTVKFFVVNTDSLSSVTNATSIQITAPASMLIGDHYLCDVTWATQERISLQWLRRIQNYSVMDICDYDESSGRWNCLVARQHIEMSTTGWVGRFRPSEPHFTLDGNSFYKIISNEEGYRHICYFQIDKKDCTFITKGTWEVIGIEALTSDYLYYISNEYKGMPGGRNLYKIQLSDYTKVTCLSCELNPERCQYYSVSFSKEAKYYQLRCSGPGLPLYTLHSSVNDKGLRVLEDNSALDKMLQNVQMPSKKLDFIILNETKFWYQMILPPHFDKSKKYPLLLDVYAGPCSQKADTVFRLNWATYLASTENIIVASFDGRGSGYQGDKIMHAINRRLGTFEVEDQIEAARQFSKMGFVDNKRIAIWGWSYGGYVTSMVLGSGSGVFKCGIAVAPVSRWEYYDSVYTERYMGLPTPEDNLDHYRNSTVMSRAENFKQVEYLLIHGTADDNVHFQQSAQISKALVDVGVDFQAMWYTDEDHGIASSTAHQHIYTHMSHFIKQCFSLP

## Sibrotuzumab: humanized version of F19
[1]; patients, phase I and phase II trials
  Safety and tolerability: safe and well tolerated
[1]; trace-labelling with ^131I, imaging analysis
  Accumulation at the tumor area: specific accumulation
[1]; unconjugated antibody, patients
  Anti-tumor or therapeutic activity: no anti-tumor or any therapeutic activity

B1: ESC14: anti-FAP antibody clone ESC14, format (Fab or IgG) given by the context of the place (antibody, V domains shown)
VH: EVQLVQSGAEVKKPGASVKVSCKASGYTFTSYGISWVRQAPGQGLEWMGWISAYNGNTNYAQKLQGRVTMTTDTSTSTAYMELRSLRSDDTAVYYCARDWSRSGYYLPDYWGQGTLVTVSS
VL: DVVMTQSPLSLPVTLGQPASISCRSSQSLLHSNGYNYLDWYLQRPGQSPHLLIFLGSNRASGVPDRFSGSGSGTDFTLKISRVEAEDVGIYYCMQALQTPPTFGQGTKVEIK
[2]; 4° C.
  Induction of apoptosis in the cold: could not be induced
[2]; HEK293 stably transfected with mouse FAP, RT, 60 min, Annexin V
  Induction of apoptosis: underwent apoptosis; also recorded: Induction of apoptosis
[3]
  Down-regulation of FAP expression: rapid FAP down-regulation
[4]
  Attachment of FAP-expressing cells to ECM proteins (matrigel, type I collagen): significant inhibition
[5]
  Induction of apoptosis in mock-transfected cells: not altered at all
[6]
  Effect on DPP (protease) activity of FAP: no direct influence
[7]
  Cross-reaction with CD26: no binding

B2: ESC14 Fab fragment: fully human anti-FAP Fab from phage library; VH SEQ ID NO: 7, VL SEQ ID NO: 8 (antibody, listed as Homo sapiens, V domains shown)
VH: B1 VH
VL: B1 VL
[3]
  Down-regulation of FAP expression: could not been observed

B3: ESC14 IgG1: ESC14 variable domains cloned into a full human IgG1 format (antibody, V domains shown)
VH: B1 VH
VL: B1 VL
[3]
  Down-regulation of FAP expression: down-regulation of FAP expression; also recorded: dose-dependent reduction of FAP
[8]
  Competition for FAP binding: cross-inhibition

B4: ESC11 IgG1: ESC11 variable domains in full human IgG1 format; heavy chain H to Q at position 1 (SEQ ID NO: 2) (antibody, V domains shown)
VH: QVQLQESGPGLVKPSETLSLTCTVSGGSISSNNYYWGWIRQTPGKGLEWIGSIYYSGSTNYNPSLKSRVTISVDTSKNQFSLKLSSVTAADTAVYYCARGARWQARPATRIDGVAFDIWGQGTMVTVSS
VL: ETTLTQSPGTLSLSPGERATLSCRASQTVTRNYLAWYQQKPGQAPRLLMYGASNRAAGVPDRFSGSGSGTDFTLTISRLEPEDFAVYYCQQFGSPYTFGQGTKVEIK
[3]
  Down-regulation of FAP expression: down-regulation of FAP expression; also recorded: dose-dependent reduction of FAP
[9]
  Internalisation of FAP-antibody complexes: most of the antibody had internalized
[8]
  Competition for FAP binding: cross-inhibition

B5: ESC11 Fab fragment: fully human anti-FAP Fab from phage library; VH SEQ ID NO: 1, VL SEQ ID NO: 3 (antibody, listed as Homo sapiens, V domains shown)
VH: B4 VH with Q1H
VL: B4 VL
[3]
  Down-regulation of FAP expression: could not been observed
